Test system: MS2 coat protein
Assay: apparent KD of MS2 coat protein; designed switch direction (-1 OFF switch, 1 ON switch): -1; higher = weaker reporter binding
Outline: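 Transcription of designed RNA switches on Illumina chips was done by stalled E. coli RNA polymerase. SNAP-549-labelled MS2 coat protein was then titrated in doubling steps from 0.7 or 1.5 nM to 3 µM, with steps of 0.8–1.5 h at the lowest and 10–20 min at the highest concentration. The per-design median over clusters of curve-fitted normalised fluorescence is reported as apparent KD.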

[1] = input ligand: microRNA oligo, concentration not stated
[2] = Eterna round: R95, input ligand: microRNA oligo, concentration not stated
[3] = Eterna round: R95, input ligand: FMN 200 uM
[4] = Eterna round: R95, input ligand: none

Sequence | apparent KD of MS2 coat protein (input ligand: FMN 200 uM) | apparent KD of MS2 coat protein (input ligand: none) | apparent KD of MS2 coat protein [1] | other results
UUCAUUGCAGGAUAUACAUGAGGAUCACCCAUGUGACCAGUGGCCUGUUGCGGCUCCAGUAGAAGGGCAUGUGU [Eternabot (L2) Solution 89] (Eterna round: R97, puzzle: Exclusion 3) | 63.8 nM | 61.2 nM |  | 
UUCCGGCAUGUAGGAUAUGGAUCCGAUUAGGAUUUAGAAGGACAUGAGGAUCACCCAUGUGCAUUUAAUUAGUCAUUACCGUUU [EXclNG1-LROPPY06] (Eterna round: R96, puzzle: Exclusion NG 1) |  |  | 34.4 nM | 
UUCCUCACUUCUUUGACUCACAUGAGGAUCACCCAUGUAAUAUAGGAUAUGCAUUUUAUUUCUUUGCAGAAGGAUAUUAGUUUU [JR_ExcNG3_Sub088] (Eterna round: R96, puzzle: Exclusion NG 3) |  |  | 34.7 nM | 
UUCGCGGAAGGAUAUACAUGAGGAUCACCCAUGUGCUUAUGCGCAACAGCUUCGCAGUGUAGAAGGUUCAGAGU [Eternabot (L1) Solution 3] (Eterna round: R97, puzzle: Exclusion 3) | 18.9 nM | 23.4 nM |  | 
UUCUUACAUGAGGAUCACCCAUGUCAGGAUAUCUCCACACUGCGCUUGCGCAGUGUAUAGAGAAGGGACAGGCU [JL ViennaUCT Aner mod 5] (puzzle: Exclusion 1) |  |  |  | apparent KD of MS2 coat protein [2]: 40.7 nM
UUCUUACAUGAGGAUCACCCAUGUCAGGAUAUCUCCUCACUGCGCUUGCGCAGUGGAUAGAGAAGGGACAGGCU [JL ViennaUCT Aner mod 3] (puzzle: Exclusion 1) |  |  |  | apparent KD of MS2 coat protein [2]: 43.1 nM
UUCUUUAUACGAGGAUAUCAUACAUGAGGAUCACCCAUGUGGCUGGGUCUGUUUUUAUAUAUUAUUGAGAAGGCGUUUUUCUUU [JR_ExcNG2_Sub074] (Eterna round: R96, puzzle: Exclusion NG 2) | 197 nM | 86.7 nM | 50.5 nM | 
UUGAUGUGAGGAUAUAUUUUUUUUUUUCUUUAUGUUUUAUAACUUGAGGAUCACCCAAGUAGAAGGCGCUACGU [JR_Ex2_Sub064] (Eterna round: R97, puzzle: Exclusion 2) | 51.7 nM | 30.5 nM |  | 
UUGCUACCUUGGUACUCUACAAGCUUUUUGCUCGUUUUAACAUGAGGAUCACCCAUGUCUAGUGGAUCUGAUCGGGU [JL ViennaUCT Isreen mod 3] (puzzle: Sensor v3, turn-off variant 2) |  |  |  | apparent KD of MS2 coat protein [3]: 87.4 nM; apparent KD of MS2 coat protein [2]: 197 nM; apparent KD of MS2 coat protein [4]: 77.5 nM
UUGGACGGAGGAUAUGCAGCGAGUAAUACGAUCGAUCCAAAACAUGAGGAUCACCCAUGUAGAAGGCUGACCAA [Eternabot (L1) Solution 11] (Eterna round: R97, puzzle: Exclusion 2) | 174 nM | 71.2 nM |  | 
UUGGAGAUAGGAUAUACGAGGAGAGUAGAGGGAAGGUGAGGACAUGAGGAUCACCCAUGUAGAAGGAUCAGGAG [JR_Exclu2_Sub067] (puzzle: Exclusion 2) |  |  |  | apparent KD of MS2 coat protein [3]: 34.8 nM; apparent KD of MS2 coat protein [2]: 34.8 nM; apparent KD of MS2 coat protein [4]: 47.6 nM
UUGGAUGUUGAGGAUAUGCUUUUUUUUAUUAUAGCAGAAGGCGAUACAUGAGGAUCACCCAUGUUCAUGGCUUU [JR_E6_Sub099] (puzzle: Exclusion 6) |  |  |  | apparent KD of MS2 coat protein [3]: 14.5 nM; apparent KD of MS2 coat protein [2]: 13.7 nM; apparent KD of MS2 coat protein [4]: 14.6 nM
UUGGUUGUGGUAGGAUAUCCGUUGGAAACCGUUGGAGAAGGACCACAGUCACUGGGUCUUUGUUUGGUGGAGUGGAAGAACCAU [pwkr exNG1 F6.19] (Eterna round: R96, puzzle: Exclusion NG 1) | 1020 nM | 349 nM | 210 nM | 
UUGUAGUGAGGAUAUAUAUAGAGGUUUUAUUAAUUUUUAAAACUUGAGGAUCACCCAAGUAGAAGGCGCAAAGU [JR_Ex2_Sub071] (Eterna round: R97, puzzle: Exclusion 2) | 41.5 nM | 39.9 nM |  | 
UUGUUAUAUGUAGGAUAUGCGUAUUAUUAUUAGGCAGAAGGACAUGAGGAUCACCCAUGUAUGUUGUUGUUAUAUAUUAUAUAU [Title] (Eterna round: R96, puzzle: Exclusion NG 1) |  |  | 20.6 nM | 
UUGUUAUAUGUAGGAUAUGCGUAUUAUUAUUGGGCAGAAGGACAUGAGGAUCACCCAUGUAUGUUGUUGUUAUAUAUUAUAUAU [Title] (Eterna round: R96, puzzle: Exclusion NG 1) | 47.2 nM | 44.4 nM | 34 nM | 
UUGUUAUAUGUAGGAUAUGCGUGUUAUUAUUAUGCAGAAGGACAUGAGGAUCACCCAUGUGUAUUAUUAUUAUAUAUUAUAUAU [Title] (Eterna round: R96, puzzle: Exclusion NG 1) |  |  | 15.4 nM | 

Sequence | apparent KD of MS2 coat protein (input ligand: FMN 200 uM) | apparent KD of MS2 coat protein (input ligand: none) | apparent KD of MS2 coat protein [1] | other results
UUGUUAUGUGUAGGAUAUGCAUAUUAUUAUUAUGCAGAAGGACAUGAGGAUCACCCAUGUAUAUUAUUAUUAUAUAUUAUAUAU [Title] (Eterna round: R96, puzzle: Exclusion NG 1) |  |  | 21.9 nM | 
UUGUUGUAUGUAGGAUAUGCAUAUUAUUAUUAUGCAGAAGGACAUGAGGAUCACCCAUGUGUAUUAUUAUUAUAUAUUAUAUAU [Title] (Eterna round: R96, puzzle: Exclusion NG 1) |  |  | 20 nM | 
UUUAAACAUGAGGAUCACCCAUGUGAGGAUAUACGAAUGCAGACACACACGGAUGCAAGUAGAAGGCACAACGC [Design #11] (Eterna round: R97, puzzle: Exclusion 1) | 29.4 nM | 25 nM |  | 
UUUAAGGUAAUUAAGAUCACAUGAGGAUCACCCAUGUAUAUAUAGGAUAUCAGCUCGUUUAGAGCUGAGAAGGAUAUAUACAUA [ExNG3/6-C2] (Eterna round: R96, puzzle: Exclusion NG 3) | 21.6 nM | 136 nM | 178 nM | 
UUUAAUUUUUUUUUUUUACAAGCUUUUUGCUCGUCUUAUACAUGAGGAUCACCCAUGUAGGUGAAGAGUAAAUUAUC [JMF 58] (puzzle: Sensor v3, turn-off variant 2) |  |  |  | apparent KD of MS2 coat protein [3]: 19.4 nM; apparent KD of MS2 coat protein [2]: 109 nM; apparent KD of MS2 coat protein [4]: 16.5 nM
UUUAAUUUUUUUUUUUUACAAGCUUUUUGCUCGUCUUAUACAUGAGGAUCACCCAUGUGGGUAAGGGAUAAAUUAUC [JMF 37] (Eterna round: R96, puzzle: Sensor v3, turn-off variant 2) | 65.4 nM | 59 nM | 51.8 nM | 
UUUAAUUUUUUUUUUUUACAAGCUUUUUGCUCGUCUUAUACAUGAGGAUCACCCAUGUGGGUAAGGGAUAAAUUAUC [JMF 37] (puzzle: Sensor v3, turn-off variant 2) |  |  |  | apparent KD of MS2 coat protein [3]: 28.5 nM; apparent KD of MS2 coat protein [2]: 33.4 nM; apparent KD of MS2 coat protein [4]: 35.3 nM
UUUAAUUUUUUUUUUUUACAAGCUUUUUGCUCGUCUUAUACAUGAGGAUCACCCAUGUGGGUAGGAGAUAAAUUAUC [JMF 16] (puzzle: Sensor v3, turn-off variant 2) |  |  |  | apparent KD of MS2 coat protein [3]: 32.1 nM; apparent KD of MS2 coat protein [2]: 45.4 nM; apparent KD of MS2 coat protein [4]: 57 nM
UUUACAAGCUUAAGAUCCCACAUGAGGAUCACCCAUGUUCCUGGCCGUGAGGCUAGGUAAACUUAUGCUCGUCUUAU [JL TOV1 3.68] (Eterna round: R97, puzzle: Sensor, turn-off variant 1) | 141 nM | 138 nM |  | 
UUUACAAGCUUUUGAUCCCACAUGAGGAUCACCCAUGUUGCUGCCGUGAGGUAGCUUUUAACAAAUGCUCGUCUUAU [JL TOV1 3.37] (Eterna round: R97, puzzle: Sensor, turn-off variant 1) | 590 nM | 690 nM |  | 
UUUAGUCGUGACAUGGGUGACAUGAGGAUCACCCAUGUCACAAGCUUCUCGCUCGUCUUAUAAUUAACCCAUGUCAC [LRO Sensor-off var1-14 mod of Stov1-13-A1 by Brourd] (Eterna round: R97, puzzle: Sensor, turn-off variant 1) | 18.6 nM | 19.8 nM |  | 
UUUAGUCGUGACAUGGGUGACAUGAGGAUCACCCAUGUUACAAGCUUGUUGCUCGUCUUAUAAUUAACCCAUGUCAC [LRO Sensor-off var1-16 mod of Stov1-13-A1 by Brourd] (Eterna round: R97, puzzle: Sensor, turn-off variant 1) | 13.5 nM | 17.2 nM |  | 
UUUAGUUCAGGAUAUGAUGAAUUAAACAUGAGGAUCACCCAUGUAGAUCCUGAAUUAACAUCAGAAGGGAAUAUUU [JL-ex5-4.47 Brourd mod] (Eterna round: R97, puzzle: Exclusion 5) | 15.1 nM | 13.7 nM |  | 
UUUAGUUCAGGAUAUGUAGAUUUAAACAUGAGGAUCACCCAUGUAAAUCCUGAUCCUGCUACAGAAGGGAACAUUU [Mat - Exclusion 5 - Eli Mod - D11] (Eterna round: R97, puzzle: Exclusion 5) | 16.6 nM | 12.7 nM |  | 
UUUCCACAUGAGGAUCACCCAUGUCAGGAUAUCUCCACAUCUUCGGAUGUGGCGUGUUAGAGAAGGGACAUGUA [EX1 A.22] (Eterna round: R97, puzzle: Exclusion 1) | 104 nM | 33.7 nM |  | 
UUUCUCUGUGUGAGGAUAUACUUGUUUGGGUUUUUGUAGAAGGCACAUGAGGAUCACCCAUGUAUUUUGUCGUG [JR_BME4_Sub019] (puzzle: Brourd's mod of Exclusion 4) |  |  |  | apparent KD of MS2 coat protein [2]: 31.5 nM
UUUGCAAGCUUUUGAUCCCACAUGAGGAUCACCCAUGUUGCUGCCGUGAGGUAGCAUUUAACAAAUGCUCGUCUUAU [JL TOV1 3.53] (Eterna round: R97, puzzle: Sensor, turn-off variant 1) | 555 nM | 762 nM |  | 
